Source: publication PMC5674894
Like-named read-outs stand apart in the source and are kept apart here.

Key:
Test in all cases: FRET or BRET
[1] = molecular target: RNC_(RodZ): ribosome-nascent chain complex displaying the N-terminal 180 amino acids of RodZ (UniProt P27434)
[2] = molecular target: RNC_(RodZ): ribosome-nascent chain complex displaying the N-terminal 180 amino acids of RodZ (UniProt P27434); remark: listed apart in the source
[3] = molecular target: RNC_(RodZ) bearing the mutant TMD with two arginines introduced (UniProt P27434)
[4] = molecular target: RNC_(RodZ): ribosome-nascent chain complex displaying the N-terminal 180 amino acids of RodZ (UniProt P27434); remark: listed apart in the source
[5] = molecular target: RNC_(RodZ160): ribosome-nascent chain complex with a RodZ nascent chain of 160 amino acids (UniProt P27434)

SecA(C98S/S12C) labeled at residue 12 with BODIPY-FL (from UniProt P10408 1-901) (enzyme)
Kd [1]: 55 nM | Kd [2]: 19 nM | Kd [3]: 25.9 nM | Kd [4]: 1 nM | reduction in Cm donor fluorescence (FRET) [4]: 44% | Kd [5]: 0.94 nM
